Measured values as given in publication PMC7491320, “Pdc2/Pat1 increases the range of decay factors and RNA bound by the Lsm1–7 complex” (RNA, 2019).

How the values were obtained:
[1] = target: the molecule itself; experiment: AUC; sedimentation velocity, 9.3 µM PatMC/Lsm1–7 with stoichiometric A15 RNA, 250 mM NaCl, 20 mM HEPES pH 7.0, 1 mM DTT, 22°C, 30,000 rpm, 10–12 h
[2] = target: the molecule itself; experiment: AUC; sedimentation velocity, 9.3 µM PatMC/Lsm1–7 without RNA, 250 mM NaCl, 20 mM HEPES pH 7.0, 1 mM DTT, 22°C, 30,000 rpm, 10–12 h

B1: PatMC/Lsm1–7 complex (complex)
chain 1: LDEKRQKLERDHMLMAQCAGLMTRSDKSFIARIQISQLMSEDPESDDFYYRVYSIIRGRKPSEEEASHFIQTYLGPSNNRRRGRRSENPMQKLQQQLQRLVSSAKERPKATQLSLEGALGKIAVNTVRTPRQLLNVKRPTEPASSNSSLNNFSGFSTKKDVLHAIEKVYDLLLDFEQALRKASTLETTDQEQIDTWKTTLSEKLESIWKALYINESLEASSKTRPPFISIISHPKGMRLLPRLFPHLSKEQQISILKVVVYNFDSLDIVLRGTFDVNGELPLDVVSEMSSFTQFIIPPLLTIVNELDLETINNLFSQLLNRTNAVYLIQTKIGLSFLTLFISRAEILKQSGTVNQNEKEEWENTFNVMFNRVKGHFSTVFPPPNARAYADESYPWEFLAACATAASSEQHFTLVSETRDRVLDNIITSKRAPSEIAVVRISNVNLFLNAMGLDARQLSA
chain 2: MNQATQIIPFTTSGSLVDYVDRKVIVVLRDGKKLIGILRSFDQFANLMLQYTIERIYVDDMYGDIDRGVYIVRGENVVLLGELDLDKEYDAVKQLRRMPAEELYPLAKLHEEEKKKNIREKGKYLHSVGFSVDGGHDDLY
chain 3: MLFYSFFKTLIDTEVTVELKNDMSIRGILKSVDQFLNVKLENISVVDASKYPHMAAVKDLFIRGSVVRYVHMSSAYVDTILLADACRRDLANNKRQ
chain 4: not shown
chain 5: MLPLTLLNATQGRPILVELKNGETFNGHLENCDNYMNLTLREVIRTMPDGDKFFRLPECYIRGNNIKYLRIQDEVLSQVAKQQAQQRENRGSRFRGRGQRGRGNYGHTAPNRRGRGRGGHM
chain 6: not shown
chain 7: MDSSPNEFLNKVIGKKVLIRLSSGVDYKGILSCLDGYMNLALERTEEYVNGKKTNVYGDAFIRGNNVLYVSALDD
chain 8: MSSLQKRPGPGNSSQPTERPRKESILDLSRYQDQRIQATFTGGRQITGILKGFDQLMNLVLDDVEEQLRNPEDGKLTGAIRKLGLVVVRGTTLVLIAPMDGSEEIPNPFVQAE
notes: Pat1 (Pdc2) of S. pombe, middle and carboxy-terminal domains (PatMC), residues 296-754, codon optimized; Lsm1 of S. pombe, from a polycistron with all seven Lsm proteins; Lsm2 of S. pombe, from the polycistron; Lsm3 of S. pombe, from the polycistron; Lsm4 of S. pombe, from the polycistron; Lsm5 of S. pombe, from the polycistron; Lsm6 of S. pombe, from the polycistron; Lsm7 of S. pombe, from the …
stoichiometry N [1]: 4 | stoichiometry N [2]: 2
